Like-named read-outs stand apart in the source and are kept apart here.
Legend:
Human CD122 [1] = biological target: T1, Human CD122 (human, UniProt P14784 27-551); experiment: flow cytometry (FACS) on huIL15Rβ-transfected CHO-K1 cells, anti-human IgG-FITC, GeoMFI
T1 construct: also called hCD122; IL2RB
T1 sequence: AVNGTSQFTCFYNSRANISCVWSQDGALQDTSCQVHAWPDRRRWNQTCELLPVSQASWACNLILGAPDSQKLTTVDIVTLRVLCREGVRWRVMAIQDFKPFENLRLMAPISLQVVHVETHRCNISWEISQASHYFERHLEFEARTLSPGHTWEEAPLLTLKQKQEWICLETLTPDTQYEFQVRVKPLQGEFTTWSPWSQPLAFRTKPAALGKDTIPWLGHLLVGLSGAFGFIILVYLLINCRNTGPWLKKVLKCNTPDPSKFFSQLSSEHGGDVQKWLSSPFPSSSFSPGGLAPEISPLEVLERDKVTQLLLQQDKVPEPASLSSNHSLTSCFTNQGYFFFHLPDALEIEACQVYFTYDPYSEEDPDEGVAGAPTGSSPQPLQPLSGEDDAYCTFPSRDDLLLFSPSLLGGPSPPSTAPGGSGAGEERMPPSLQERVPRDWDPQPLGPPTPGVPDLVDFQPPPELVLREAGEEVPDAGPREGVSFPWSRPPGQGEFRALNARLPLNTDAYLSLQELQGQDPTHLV
Experimental: (§1) Purified IgGs were tested in FACs for binding to human and rhesus CD122 expressed on CHO-K1 stable cell lines and CHO-K1 wild-type cells. The IgG samples were titrated in three-fold serial dilutions starting at 500 nM to […]. Binding of IgGs was detected with a mouse anti-human IgG conjugated to FITC. Results were analyzed by examining the Mean Fluorescence Intensity (MFI) of 10000 cells per sample in the BL-1 channel detector of a flow cytometer (AttuneTM NxT Acoustic Focusing Cytometer, Invitrogen/ ThermoFisher Scientific).

Rhesus CD122 [2] = biological target: T2, Rhesus CD122 (rhesus monkey, UniProt Q38J85 27-551 (cynomolgus entry)); experiment: flow cytometry (FACS) on rhIL15Rβ-transfected CHO-K1 cells, anti-human IgG-FITC, GeoMFI
T2 construct: also called rhCD122 on cells
T2 sequence: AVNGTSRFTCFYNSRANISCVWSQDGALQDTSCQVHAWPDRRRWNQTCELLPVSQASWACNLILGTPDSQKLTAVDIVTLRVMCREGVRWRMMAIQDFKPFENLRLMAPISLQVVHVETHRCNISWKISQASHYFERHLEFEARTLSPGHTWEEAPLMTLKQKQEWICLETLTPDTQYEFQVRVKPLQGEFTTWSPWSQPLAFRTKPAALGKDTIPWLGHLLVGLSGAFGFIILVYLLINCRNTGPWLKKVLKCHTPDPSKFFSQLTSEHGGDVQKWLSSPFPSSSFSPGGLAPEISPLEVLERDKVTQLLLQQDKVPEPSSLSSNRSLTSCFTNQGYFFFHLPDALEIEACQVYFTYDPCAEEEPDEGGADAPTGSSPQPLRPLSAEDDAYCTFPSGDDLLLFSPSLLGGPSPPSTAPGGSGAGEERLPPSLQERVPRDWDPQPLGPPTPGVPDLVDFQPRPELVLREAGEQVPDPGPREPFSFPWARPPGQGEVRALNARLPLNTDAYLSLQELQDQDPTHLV
Experimental: as §1

Human CD122 [3] = biological target: T1, Human CD122; experiment: flow cytometry (FACS) on huIL15Rβ-transfected CHO-K1 cells, anti-human IgG-FITC, GeoMFI; remark: listed apart in the source
Experimental: as §1

Human CD122 [4] = biological target: T1, Human CD122; experiment: as above; remark: listed apart in the source
Experimental: as §1

Rhesus CD122 [5] = biological target: T2, Rhesus CD122; experiment: flow cytometry (FACS) on rhIL15Rβ-transfected CHO-K1 cells, anti-human IgG-FITC, GeoMFI; remark: listed apart in the source
Experimental: as §1

Human CD122 [6] = biological target: T1, Human CD122; experiment: flow cytometry (FACS) on huIL15Rβ-transfected CHO-K1 cells, anti-human IgG-FITC, GeoMFI; remark: listed apart in the source
Experimental: as §1

Rhesus CD122 [7] = biological target: T2, Rhesus CD122; experiment: flow cytometry (FACS) on rhIL15Rβ-transfected CHO-K1 cells, anti-human IgG-FITC, GeoMFI; remark: listed apart in the source
Experimental: as §1

B1: IgG1-MIKβ1 (humanized) (antibody, V domains shown)
VH: EVQLLESGGGLVQPGGSLRLSCAASGFSVTSYGVHWIRQAPGKGLEWLGVIWSGGSTDYNAAFISRLTISKDNSKNTVYFQMNSLQAEDTAIYYCARAGDYNYDGFAYWGQGTLVTVSS
VL: DIVLTQSPSSLSASVGDRVTITCSGSSSVSFMYWYQQRPGKAPRLLIYDTSNLASGVPSRFSGSGSGTSYTFTISSLQPEDIATYYCQQWSTYPLTFGQGTKVEVK
notes: also called VillMab-1; VillMAB-1
EC50 (read off the curve) (Human CD122 [1]): ~900 pM
EC50 (read off the curve) (Rhesus CD122 [2]): ~600 pM
EC50 (read off the curve) (Human CD122 [3]): ~900 pM
EC50 (read off the curve) (Human CD122 [4]): ~900 pM
EC50 (read off the curve) (Rhesus CD122 [5]): ~700 pM
EC50 (read off the curve) (Human CD122 [6]): ~900 pM
EC50 (read off the curve) (Rhesus CD122 [7]): ~600 pM

Reference: patent US20230357420A1 (VILLARIS THERAPEUTICS, published 2023)
